The target in experiment [1] is angiotensin AT1 receptor (UniProt P30556). Nature of the experiment: genetically encoded conformation-sensitive fluorescent biosensor.
The target is the same in experiment [2]. The description is as above. This is another data set of the same source.

Like-named read-outs stand apart in the source and are kept apart here.

Here are results for one substance from paper doi:10.1101/772293.

UniProt P30556, sequence (P30556 whole entry): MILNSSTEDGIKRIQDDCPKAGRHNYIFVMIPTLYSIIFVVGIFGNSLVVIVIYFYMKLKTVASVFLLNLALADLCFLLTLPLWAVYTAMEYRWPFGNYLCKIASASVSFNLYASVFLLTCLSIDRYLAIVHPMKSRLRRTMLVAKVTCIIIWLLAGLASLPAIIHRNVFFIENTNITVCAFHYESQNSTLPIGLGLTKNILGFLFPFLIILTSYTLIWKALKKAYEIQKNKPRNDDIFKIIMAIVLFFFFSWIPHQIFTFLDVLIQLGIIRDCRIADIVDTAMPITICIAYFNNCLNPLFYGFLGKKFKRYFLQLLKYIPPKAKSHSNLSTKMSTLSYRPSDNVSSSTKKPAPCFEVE

In experiment [1], “β-arrestin2 sensor (β-arrestin2 inserted into the seventh stave of mNeonGreen) (from UniProt P32121 1-409)” gave a t1/2 of arrestin recruitment (0.693/kobs) with 32 uM AngII of 45 s and a t1/2 of arrestin recruitment (0.693/kobs) with 32 uM SII of 84. In experiment [2], this substance had a t1/2 of arrestin recruitment (0.693/kobs) with 32 uM AngII of 44 s.
